Data taken from PMC12409426, “Regulation of the MDM2-p53 nexus by a nuclear phosphoinositide and small heat shock protein complex” (The Journal of Biological Chemistry, 2025).

Tests used:
Details in all cases: both partners purified
[1] = molecular target: T1, His-tagged MDM2 (recombinant, bacteria-expressed) (UniProt Q00987 1-491); assay: MST; fluorescence-labeled αBC or HSP27 (target, 5 nM, RED-NHS) constant, non-labeled His-/FLAG-MDM2 or His-/FLAG-p53 titrated to 500 nM; 50 mM Tris-HCl pH 8.0, 50 mM NaCl, 80 mM KCl, 0.05% Tween-20
T1 construct: MDM2, E3 ubiquitin-protein ligase; His-tagged construct purchased from Genscript; also called His-MDM2; MDM2 recombinant protein; source: E. coli BL-21(DE3), purified (Ni-NTA-agarose)

[2] = molecular target: T2, FLAG-tagged MDM2 (mammalian-expressed, PIPn-linked) (UniProt Q00987 1-491, PIP2 stably associated (PIPn-linked), site not told); assay: as above
T2 construct: MDM2; cDNA purchased from OriGene; Its chemistry and site are unknown; also called FLAG-MDM2; PIPn-linked MDM2; source: HEK293FT, purified (FLAG Purification Kit), dialysed into PBS

[3] = molecular target: T1, His-tagged MDM2 (recombinant, …); assay: MST; fluorescence-labeled MDM2 (target, 5 nM, RED-NHS) constant, non-labeled ligand titrated to 500 nM; 50 mM Tris-HCl pH 8.0, 50 mM NaCl, 80 mM KCl, 0.05% Tween-20; Monolith NT.115 Pico

T1 sequence (Q00987 whole entry): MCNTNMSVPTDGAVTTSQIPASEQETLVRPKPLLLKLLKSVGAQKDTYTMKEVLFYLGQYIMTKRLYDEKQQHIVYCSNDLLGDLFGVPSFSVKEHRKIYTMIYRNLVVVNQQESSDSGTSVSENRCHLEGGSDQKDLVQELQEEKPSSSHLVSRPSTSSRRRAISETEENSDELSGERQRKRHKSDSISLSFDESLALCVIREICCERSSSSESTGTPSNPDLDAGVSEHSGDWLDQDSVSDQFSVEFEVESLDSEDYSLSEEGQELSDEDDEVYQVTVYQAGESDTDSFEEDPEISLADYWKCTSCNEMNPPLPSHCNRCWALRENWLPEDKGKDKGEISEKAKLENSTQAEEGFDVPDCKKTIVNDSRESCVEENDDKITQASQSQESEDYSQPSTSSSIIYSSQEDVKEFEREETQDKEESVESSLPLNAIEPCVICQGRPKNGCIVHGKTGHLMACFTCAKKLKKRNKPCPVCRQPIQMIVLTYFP
T2 sequence (Q00987 whole entry): as above

Kd [1]: 58 ± 5 nM | Kd [2]: 7 ± 1 nM | Kd [3]: 58 ± 5 nM
B1: αB-crystallin (recombinant, His-tagged) (natural protein, UniProt P02511 1-175, looked up)
chain: MDIAIHHPWIRRPFFPFHSPSRLFDQFFGEHLLESDLFPTSTSLSPFYLRPPSFLRAPSWFDTGLSEMRLEKDRFSVNLDVKHFSPEELKVKVLGDVIEVHGKHEERQDEHGFISREFHRKYRIPADVDPLTITSSLSSDGVLTVNGPRKQVSGPERTIPITREEKPAVTAAPKK
notes: αB-crystallin; His-tagged construct purchased from Genscript; source: E. coli BL-21(DE3), purified (Ni-NTA-agarose)
